Publication PMC7815789, “Degradation of complex arabinoxylans by human colonic Bacteroidetes” (Nature Communications, 2021)

Target: the molecule itself
Test: crystal structure; seleno-methionine-labeled BACINT_01033-CE1, 20 mg/ml in 50 mM Tris pH 7.5, 150 mM NaCl; sitting drop, room temperature; P3_(1)21 form from 0.1 M BIS-Tris pH 6.5, 20% PEG 1,500; dimer in the asymmetric unit

B1: BACINT_01033-CE1 (carbohydrate esterase family 1, ferulic acid esterase) (enzyme, Bacteroides intestinalis DSM 17393)
chain: QQQDFPAGTTPNEHNINGADYPRIGEDRRVHFRIHAPNAQKVEISFRGEMTKEADGYWSLVSKEPEVIGFHYYQVIIDGVSAADPNGKPFFGMGKWVSGIEIPEKGVDYYSIKNVPHGLISQSWYYSDIRKEWRRCIVYTPAEYDKNPTKKYPVLYLQHGMGENETSWANQGKMNFIMDNLIAEGKAKPMIVVMDNGNIEVFKTNSGETPEDARKRFGAEFPAILVNEIIPHIESNFRTLTDRDNRAMAGLSWGGLLTFNTTLNNLDKFAYIGGFSGAGSIDLKQLDTVYGGVFKNRKAFNDKVHVFFLGIGSEEHPERTKNLSDGLQAAGINTIYYESPGTAHEFLTWRRCLKEFAPLLFKTK
modifications: seleno-methionine-labeled
notes: BACINT_01033-CE1 of Bacteroides intestinalis DSM 17393; N-terminal Ig-like fold of ~100 residues followed by the esterase domain (residues 126-383); predicted signal peptide; Cloned NdeI/XhoI into pET-28a; also called Bi1033-CE1; Bi1033; source: E. coli BL21 (DE3), seleno-methionine-labeled, purified (HisTrap, Superdex 200)
  stoichiometry N: 2
